Assays:
UCP1 = UCP1 mRNA expression in SVF cells from subcutaneous white adipose tissue (SQ-SVF); assay type: cell-based, C57BL/6 mice; settings: growth media, 3 days; vs control
Method: Eight 6-week old C57BL/6 male mice were sacrificed. Interscapular BAT and axillary subcutaneous WAT were removed, minced and digested with 1 mg/ml collagenase for 45 minutes at 37° C. in DMEM/F12 media, containing 1% BSA and antibiotics. Digested tissues were filtered through sterile 150 μm nylon mesh and centrifuged at 250×g for 5 minutes. The floating fractions consisting of adipocytes were discarded and the pellets representing the SVF were then resuspended in erythrocyte lysis buffer (154 mM NH4Cl, 10 mM KHCO3, 0.1 mM EDTA) for 10 minutes to remove red blood cells. The cells were further centrifuged at 500×g for 5 minutes, plated at 8×10^5 cells/well of a 24-well plate and grown at 37° C. in DMEM/F12 supplemented with 10% FBS at 37° C.
To determine if FGF6 treatment of primary adipose progenitors could also increase UCP1 expression as observed in Example 1, stromo-vascular fraction (SVF) cells, which comprise adipocyte progenitors, were isolated from interscapular brown adipose tissue (BAT-SVF) and subcutaneous white adipose tissue (SQ-SVF). SVF cells were subsequently treated with FGF6 or FGF21 in growth media (DMEM+10% FBS) for 3 days, followed by determination of UCP1 expression. As described in FIGS. 9A and 9B, FGF21 treatment had little effect on UCP1 mRNA expression in either type of SVF cells, as compared to the control. […]

WT-1 brown preadipocytes = experiment: Cell proliferation (MTT assay) in WT-1 brown preadipocytes; assay type: cell-based, murine; settings: 200 ng/ml; 24 and 72 hours
Method: FIGS. 4A-4C graphically depict FGF6 induction of UCP1 expression in brown preadipocytes in a dose-dependent and time-regulated manner. Specifically, FIG. 4A depicts a dose-response curve of UCP1 expression by FGF6 at day 7. Numbers above curve indicate fold-increase relative to vehicle control. FIG. 4B depicts the fold-induction of UCP1 by vehicle control (“C”), FGF6 (“F6”) or FGF21 (“F21”) within 24 hours of treatment. FIG. 4C depicts a time-course of UCP1 expression induced by 200 ng/ml of FGF6, compared with cells differentiated in regular induction media. Numbers above curves indicate fold-induction relative to day 0. FIG. 4D depicts the effect of FGF6 on cell proliferation (measured by MTT assay) at 24 and 72 hours.
The effect of FGF6 on cell proliferation was also evaluated.

B1: FGF6: fibroblast growth factor 6; recombinant human FGF from R&D Systems, or mouse FGF6 cDNA overexpressed by lentiviral vector (protein)
chain: KRQRRLYCNVGIGFHLQVLPDGRISGTHEENPYSLLEISTVERGVVSLFGVRSALFVAMNSKGRLYATPSFQEECKFRETLLPNNYNAYESDLYQGTYIALSKYGRVKRGSKVSPIMTVTHFLPRI
- increase in UCP1 mRNA expression in SVF from subcutaneous WAT (UCP1): ~200 fold
- effect on cell proliferation (WT-1 brown preadipocytes): virtually no effect
